Laboratory results as given in patent publication US20220119501A1 (INVISISHIELD TECHNOLOGIES, published 2022).

B1: anti-S1 (SARS-CoV-2) scFv clone #20 (scFv)
scFv: SYVLTQPPSASGTPGQRVTISCSGSSSNIGSNTVNWYQQLPGTAPKLLIYSNNQRPSGVPDRFSASKSGTSASLAISGFQSEDEADYYCAAWDDSLDGYVFGTGTKVTVLGSRGGGGSGGGGSGGGGSLEMAEVQLVQSGAEVKKPGESLKISCKGSGYSFPSYWIGWVRQMPGKGLEWMGIIYPGDSDTRYSPSFQGQVTISADKSISTAYLQWSSLKASDTAMYYCARGSYTYMGGSYDYWGQGTLVTVSSTSGQAGQ
notes: also called phage clone #20
B2: anti-S1 (SARS-CoV-2) scFv clone #15 (scFv)
scFv: QSVLTQPPSVSEAPRQRVTISCSGSSSNIGNNAVNWYQQLPGKAPKLLIYFNDVQSSGVSDRFSGSKSGTSASLAISGLQSEDEADYYCAAWDDSLNAVLFGGGTKLTVLGSRGGGGSGGGGSGGGGSLEMAEVQLVQSGAEVKKPGASVKVSCKASGYTFTGYYMHWVRQAPGQGLEWMGRINPNSGGTDYARKFRGRVTMTRDTSISTAYMELSRLTSDDTAMYYCARGYGDDWGQGTLVTVSSTSGQAGQ
notes: also called phage clone #15
B3: anti-S1 (SARS-CoV-2) scFv clone #30 (scFv)
scFv: QSALTQPPSASGSPGQSVTISCTGTSSDVGGYDYVSWYQQHPGKAPKLMIYEVSKRPSGVSNRFSGSKSGNTASLTISGLQAEDEADYYCSSYTSSSTFPYVFGTGTKVTVLGSRGGGGSGGGGSGGGGSLEMAEVQLVESGGGLEQPGGSLRLSCAASGFTFSSYAMSWVRQAPGKGLEWVSAISASGNSTFYADSVKGRFTISRDNSKHTLDLQMNSLRADDTAVYYCARNSDVWGQGTLVTVSSTSGQAGQ
notes: also called phage clone #30
B4: anti-S1 (SARS-CoV-2) scFv clone #19 (scFv)
scFv: QSALTQPASVSGSPGQSITISCTGTSSDVGGYNYVSWYQQHPGKVPKLMIYEVSNRPSGVSNRFSGSKSGNTASLTISGLQAEDEADYYCSSYTSGDTLVFGGGTKVTVLGSRGGGGSGGGGSGGGGSLEMAELQLVESGGGVVQPGRSPRLSCAASGFTFSNYPMHWVRQAPGKGLEWVAVISYDGNHKYYADSLEGRFSISRDNSKNTLYLQMNSLTAADTAVYYCARGGGMGGLDSWGQGTLVTVSSTSGQAGQ
notes: also called phage clone #19
B5: anti-S1 (SARS-CoV-2) scFv clone #09 (scFv)
scFv: NFMLTQPHSVSESPGKTVSISCTGSSGSIASNYVQWYQQRPGSAPTTVIYEDKERPSGVPNRFSGSIDRSSNSASLTISGLKTEDEADYYCQSYDDGNVVFGGGTKLTVLGSRGGGGSGGGGSGGGGSLEMAEVQLVESGAEVKKPGASVKVSCKASGYTFTSYGISWVRQAPGQGLEWMGWISAYNGNTNYAQKFQDRVTLTTDTSTNTAYMLLRSLRSDDTAVYYCARTWYSYHYDIWGQGTLVTVSSTSGQAGQ
notes: also called phage clone #09
B6: anti-S1 (SARS-CoV-2) scFv clone #26 (scFv)
scFv: QAVLTQAPSASGTLGQQVTISCSGTTSNIGRNTVNWYQHLPGTAPKLLIFVSNQRPSGVPDRFSGSKSGTSASLVISGLQSEDEADYYCGAWDDSLDGMLFGGGTKLTVLGSRGGGGSGGGGSGGGGSLEMAQVQLVQSGAEVKKPGASVKVSCKASGYTFTSYGISWVRQAPGQGLEWMGWISAYNGNTNYAQKLQGRVTMTTDTSTSTAYMELRSLRSDDTAVYYCARGYYGDLDPWGQGTLVTVSSTSGQAGQ
B7: anti-S1 (SARS-CoV-2) scFv clone #13 (scFv)
scFv: QSVLTQPPSASGTPGQRVTISCSGSSSNIGSNYVYWYQQLPGTAPKLLIYRNNQRPSGVPDRFSGSKSGTSASLAISGLRSEDEADYYCAAWDDSLSGPNYVFGTGTKVTVLGSRGGGGSGGGGSGGGGSLEMAQVQLVQSGAEVKKPGSSVKVSCKASGGTFSSYAISWVRQAPGQGLEWMGWISGYNGNTNYAQKLQGRVTMTTDTSTSTAYMELRSLRSDDTAVYYCARTGWSKGEKVTTWGEWFYVDYWGQGTLVTVSSTSGQAGQ
notes: also called phage clone #13

Key:
[1] = molecular target: T1, S1 subunit polypeptide of SARS-CoV-2 spike protein (isolate 2019-nCoV, WIV4) (SARS-CoV-2 (isolate 2019-nCoV, WIV4), UniProt P0DTC2 16-685); assay: phage ELISA on SARS-CoV-2 spike S1 (FIG. 1)
[2] = molecular target: T1, S1 subunit polypeptide of SARS-CoV-2 …

Binder	binding result [1]	IC50 [2]
B1	binds	–
B2	binds	–
B3	binds	–
B4	binds	–
B5	binds	–
B6	–	1.33 nM
B7	binds	–
